Experiment: yeast display, Sf9 membrane polyspecificity reagent, FACS + sequencing; frameworks hold sequencing errors
Method in brief: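 Nanobodies from a synthetic yeast display library (Saccharomyces cerevisiae BJ5465), induced 36–48 hours with galactose, were stained 1 hour at 4 °C with 10% biotinylated, detergent-solubilized Sf9 membrane reagent, enriched on streptavidin microbeads, then FACS-sorted. Anti-HA (expression) and streptavidin (reagent binding) fluorescence set low and high (top ~1%) gates. Polyreactivity labels come from the gate of origin. Genes were colony-PCR amplified, MiSeq 2 × 250 sequenced and filtered by CDR length.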

Row | Sequence | polyreactivity (PSR sort gate)
1 | QVQLVESGGGLVQAGGSLRLICAASGRILWYYAMGWYRQAPGKERELVAAITSSGRTKYADSVKGRFTISRDNAKNTVYLQMNSLKPEDSAVYYCAARPSQWNYDYRRVYYWGQGTQVTVSS | high polyreactivity
2 | QVQLVESGGGLVQAGGSLRLSSAASGFIFVGNAMGWYRQAPGKERELVATISGADSTNYADSVKGRFTISRDNAKNTVYLQMNSLKPEDTAVYDCAKEGYSYFDGNYGPYRYDYWGQGTQVTVSS | low polyreactivity
3 | QVQLVESGGGLVQAGGSLRLSCAASGYIFVIYAMGRYRQAPGKERELVAAITDGGDNTYYADSVKGRFTISRDNAKNTVYLHMNSLKPEDTAVYYCAADVYLPIAAWEGSLEYYYWGQGTQVTVSS | high polyreactivity
4 | KVQLVESGGGLVQAGGSLRLSCAASGSTFQYYAMGWYRQAPGTERELVAAITSGGSTNYADSVKGRFTISRDNAKNTVYLQMNSLKPEDTAVYYCNADSSGWFPFDYWGQGTQVTVSS | low polyreactivity
5 | QVQLLESGGGLVQAGGSLRLSCAASGRIFHYNAMGWYRQAPGKERELVAAITRRGTSTYYADSVKGRFTISRDNAKNTVYLQMNSLKPEDTAVYYCNTDTYYRLLDYWGQGTQVTVSS | low polyreactivity
6 | QVQLVESGGGLVQAGGSLRLSCAASGFIFLAYTMGWYRQAPGKERELVAAISTSGGSTYYEDSVKGRFTISRDNAKNTVYLQMNSLKPEDTAVYYCAARYRWGRYDYWGQGTQVTVSS | high polyreactivity
7 | QVQLVESGGGLVQAGGSLRLSCAASGITFVPNAMGWYRQAPGKERELVARIDNGVSTNYADSVKGRFTISRDNAKNTVYLQMNSLKPEDTAVYYCAKDGYWGDWDQYYWGQGTQVTVSS | low polyreactivity
8 | QVQLVESGGGLVHAGGSLRLICAASGSIFQSYDMGWYRQAPGKERELVAAISWSGSTTYYADSVKGRFTISRDNAKNTVYLQMNSLKPEDTAVYYCAVDSNPPDWWAVIYGYWGQGTQVTVSS | low polyreactivity
9 | QVQLVESGGGLVQAGGSLRLSCAASGSTFQLYAMGWYRQAPGKERELVAAISGIGDSTYYADSVKGRFTISRDNAKNTVYLQMNSLKPEDTAVYYCAREFSDGLSGKFDYWGHGTQVTVSS | low polyreactivity
10 | QVQLVESGGGLVQAGGSLRLSCAASGRTFIIYTMGWYRQAPGKEREFVAAITRSGGGTYYADSVKGRFTISRDNAKNTVYLQMNSLKPEDTAVYYFAADRFYDQAYDYWGQGTQVTVSS | low polyreactivity
11 | QVQLVESGGGLVQAGGSLRLSCAASGIIFRVYAMGWYRQAPGKERELVATITWSGGSTFYADSVKGRFTISRDNAKNPVDLQRNSLTPEDTAVYYCAARGYLRREQLYVLIRYDYWGQGTQVTVSS | low polyreactivity
12 | QVQLVESVGGLVQAGGSLRLSCAASGRTLGKYAMGWYIQAPGKERELVAAIRWTGTSTYYADSVKGRFTISRDNAKNTVYLQMNSLKPEDTAVYYCAKGTVHSRPDFGRGWYRWDDYWGQGTQVTVSS | high polyreactivity
13 | QVQLVESGGGLVQAGGSLRLSCAASGFIFSYYAKGWYRQAPGKERELVAAIDGSGGSTYYADSVKGRFTISRDNAKNTVYLQMNSLKPVDTAVYYCNTLIFIQGLGYDYWGQGTQVTVSS | high polyreactivity
14 | QVQLVESGGGLVQAGGSLRLSCAAAGRTFGDYDMGWYRQAPGKERELVAAITSDGTTYYADSVKGRFTISRDNAKNTVYLQMNSLKPEDTAVYYCAADYWYVSWYDYWGQGTQVTVSS | low polyreactivity
15 | QVQLVESGGGLVQAGGSLRLSCAASGRTFSRYTMGWYRQAPGKEREFVAAISVNGGTTHYADSVKGRFTISRDNAKNTVYLQMNSLKPEDTAVYYCAARNYLARRYGYWGQGTQVTVSS | high polyreactivity
16 | QVQLVESGGGLVQAGGSLRLSCAASGLTFLFYAMGWYRHATGKERELVASIRWSDGRTYYADSVKGRFTISRDNAKNTVYLQMNSLKPEDTAVYYCAVVPAYVYLNREYYWGQGTQVTVSS | high polyreactivity
17 | QVQLVESGGGLVQAGGSLRLSCAASGSIFPRYFMGWYRQAPGKERELVAAISQSGGSTYYADSVKGRFTISRDNAKNTVYLQMNSLKPEDTAVYYCAAEVRGWRVDYYYWGQGTQVTVSS | high polyreactivity
